Measurements taken from patent US20230265151A1, “GIP/GLP1 CO-AGONIST COMPOUNDS” (priority 2020, published 2023).
*1 amine or outer side, *2 acyl side, *3 side chain or, on linkers, in order; H or OH if unused. Where no end group is shown, it is not given here. Side-chain parts run from the residue outwards. [ ]: non-standard residue; d: D form. The star is where a group is joined. αMePhe(2-F) = C[C@](N)(Cc1ccccc1F)C(=O)O; γGlu = O=C(O)[C@H](CCC(=O)[*:2])N[*:1]; C14 diacid = O=C(O)CCCCCCCCCCCCC(=O)*; αMeY = C[C@](N)(Cc1ccc(O)cc1)C(=O)O; αMeL = CC(C)C[C@](C)(N)C(=O)O; Nle = CCCC[C@H](N)C(=O)O; Orn = NCCC[C@H](N)C(=O)O; AEEA = NCCOCCOCC(=O)O; Aib = CC(C)(N)C(=O)O

T1: human GIP receptor (human, UniProt P48546 22-466)
T1 sequence (looked up): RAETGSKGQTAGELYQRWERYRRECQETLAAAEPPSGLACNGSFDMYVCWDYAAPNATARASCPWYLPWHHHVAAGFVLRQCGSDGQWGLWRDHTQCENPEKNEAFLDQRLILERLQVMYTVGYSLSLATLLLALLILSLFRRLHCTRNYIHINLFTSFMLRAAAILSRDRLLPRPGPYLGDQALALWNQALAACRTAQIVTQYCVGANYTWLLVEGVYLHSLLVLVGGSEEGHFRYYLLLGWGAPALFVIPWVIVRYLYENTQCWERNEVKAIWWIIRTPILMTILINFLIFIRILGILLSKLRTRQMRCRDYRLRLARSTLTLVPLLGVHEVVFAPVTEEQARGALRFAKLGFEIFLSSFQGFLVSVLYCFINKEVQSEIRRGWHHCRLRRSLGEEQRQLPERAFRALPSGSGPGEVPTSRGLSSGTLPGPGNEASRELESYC


Experiments:
Assay in all cases: cell-based or functional assay
[1] = biological target: T1, human GIP receptor
[2] = biological target: human GLP-1 receptor (human, UniProt P43220 24-463)
[3] = biological target: human glucagon receptor (human, UniProt P47871 26-477)
human glucagon receptor, sequence (P47871 26-477): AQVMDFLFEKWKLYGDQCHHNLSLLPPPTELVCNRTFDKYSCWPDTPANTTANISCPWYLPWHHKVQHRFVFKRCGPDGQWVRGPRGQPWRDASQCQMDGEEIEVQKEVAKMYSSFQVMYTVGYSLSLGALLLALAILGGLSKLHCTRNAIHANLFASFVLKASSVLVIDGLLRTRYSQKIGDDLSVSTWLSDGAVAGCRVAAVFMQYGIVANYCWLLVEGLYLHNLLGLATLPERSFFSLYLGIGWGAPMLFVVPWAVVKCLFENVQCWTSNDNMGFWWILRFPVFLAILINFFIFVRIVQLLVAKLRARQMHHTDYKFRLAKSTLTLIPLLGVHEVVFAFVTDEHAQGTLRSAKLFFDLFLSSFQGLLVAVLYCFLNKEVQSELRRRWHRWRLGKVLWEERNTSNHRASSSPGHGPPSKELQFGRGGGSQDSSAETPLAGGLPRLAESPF

| Binder | cAMP EC50 (1.0% HSA) [1] [nM] | cAMP Emax (1.0% HSA) [1] [%] | cAMP EC50 (1.0% HSA) [2] [nM] | cAMP EC50 (1.0% HSA) [3] [nM] | cAMP Emax (1.0% HSA) [2] [%] |
| --- | --- | --- | --- | --- | --- |
| Y[Aib]EGT[αMePhe(2-F)]TSD[Nle]SI[αMeL]LD[Orn]QAQ[Aib][Orn]FIK([AEEA-AEEA-γGlu-C14 diacid])[αMeY]LIK([AEEA-AEEA-γGlu-C14 diacid])GGPSSGAPPPS-NH2 [Example 490] | 0.976 | 97.1 | 7.68 | > 9950 | – |
| YXEGTXTSDXXIXLDXQAQXXFIKXLIKGGPSSGAPPPS (not fully specified; Y-Aib-EGT-αMeF(2F)-TSD-4Pal-Aib-I-αMeL-LD-Orn-QAQ-Aib-Orn-FIK((2-[2-(2-Amino-ethoxy)-ethoxy]10-(4-carboxyphenoxy)decanoyl))-αMeY-LIK((2-[2-(2-Amino-ethoxy)-ethoxy]-acetyl)-Aoc-(γ-Glu)-(10-(4-carboxyphenoxy)decanoyl))GGPSSGAPPPS-NH2) [Example 454] | 1.3 | – | 18.6 | > 9950 | – |
| YXEGTXTSDXXIXLDXQAQXXFIKXLIKGGPSSGAPPPS (Y-Aib-EGT-αMeF(2F)-TSD-4Pal-Aib-I-αMeL-LD-Orn-QAQ-Aib-Orn-FIK(PEG3-(γ-Glu)-CO-(CH2)12-CO2H)-αMeY-LIK(PEG3-(γ-Glu)-CO-(CH2)12-CO2H)GGPSSGAPPPS-NH2) [Example 458] | 0.726 | – | 7.61 | > 9950 | – |
| YXEGTXTSDXSIXLDXQAQXXFIKXLIKGGPSSGAPPPS (Y-Aib-EGT-αMeF(2F)-TSD-hY-SI-αMeL-LD-Orn-QAQ-Aib-Orn-FIK((2-[2-(2-Amino-ethoxy)-ethoxy]-acetyl)2-(γ-Glu)-CO-(CH2)12-CO2H)-αMeY-LIK((2-[2-(2-Amino-ethoxy)-ethoxy]-acetyl)2-(γ-Glu)-CO-(CH2)12-CO2H)GGPSSGAPPPS-NH2) [Example 491] | 1.08 | 87.5 | 5.51 | > 9950 | – |
| YXEGTXTSDXXIXLDXQAQXXFIKXLIKGGPSSGAPPPS (Y-Aib-EGT-αMeF(2F)-TSD-4Pal-Aib-I-αMeL-LD-Orn-QAQ-Aib-Orn-FIK(PEG3-(γ-Glu)-(10-(4-carboxyphenoxy)decanoyl))-αMeY-LIK(PEG3-(γ-Glu)-(10-(4-carboxyphenoxy)decanoyl))GGPSSGAPPPS-NH2) [Example 462] | 0.317 | – | 3.34 | > 9950 | – |
| YXEGTXTSDXXIXLDXQAQXXFIKXLIKGGPSSGAPPPS (Y-Aib-EGT-αMeF(2F)-TSD-4Pal-Aib-I-αMeL-LD-Orn-QAQ-Aib-Orn-FIK((2-[2-(2-Amino-ethoxy)-ethoxy]-acetyl)-(γ-Glu)3-(10-(4-carboxyphenoxy)decanoyl))-αMeY-LIK((2-[2-(2-Amino-ethoxy)-ethoxy]-acetyl)-(γ-Glu)3--(10-(4-carboxyphenoxy)decanoyl))GGPSSGAPPPS-NH2) [Example 487] | 0.429 | – | 3.16 | > 9950 | – |
| YXEGTXTSDYXIXLDXQAQXXFIKXLIKGGPSSGAPPPS (Y-Aib-EGT-αMeF(2F)-TSDY-Aib-I-αMeL-LD-Orn-QAQ-Aib-Orn-FIK((2-[2-(2-Amino-ethoxy)-ethoxy]-acetyl)2-(γ-Glu)2-CO-(CH2)12-CO2H)-αMeY-LIK((2-[2-(2-Amino-ethoxy)-ethoxy]-acetyl)2-(γ-Glu)2-CO-(CH2)12-CO2H)GGPSSGAPPPS-NH2) [Example 480] | 0.29 | – | 2.65 | > 9950 | 104 |
| YXEGTXTSDXXIXLDXQAQXXFIKXLIKGGPSSGAPPPS (Y-Aib-EGT-αMeF(2F)-TSD-4Pal-Aib-I-αMeL-LD-Orn-QAQ-Aib-Orn-FIK(Ahx-(2-[2-(2-Amino-ethoxy)-ethoxy]-acetyl)-(γ-Glu)-(10-(4-carboxyphenoxy)decanoyl))-αMeY-LIK(Ahx-(2-[2-(2-Amino-ethoxy)-ethoxy]-acetyl)-(γ-Glu)-(10-(4-carboxyphenoxy)decanoyl))GGPSSGAPPPS-NH2) [Example 455] | 0.362 | – | 5.24 | > 9950 | – |
| YXEGTXTSDXXIXLDXQAQXXFIKXLIKGGPSSGAPPPS (Y-Aib-EGT-αMeF(2F)-TSD-4Pal-Aib-I-αMeL-LD-Orn-QAQ-Aib-Orn-FIK((2-[2-(2-Amino-ethoxy)-ethoxy]-acetyl)-(γ-Glu)3-CO-(CH2)12-CO2H)-αMeY-LIK((2-[2-(2-Amino-ethoxy)-ethoxy]-acetyl)-(γ-Glu)3-CO-(CH2)12-CO2H)GGPSSGAPPPS-NH2) [Example 486] | 0.239 | – | 2 | > 9950 | – |
| YXEGTXTSDXXIXLDXQAQXXFIKXLIKGGPSSGAPPPS (Y-Aib-EGT-αMeF(2F)-TSD-4Pal-Aib-I-αMeL-LD-Orn-QAQ-Aib-Orn-FIK(PEG4-(γ-Glu)-(10-(4-carboxyphenoxy)decanoyl))-αMeY-LIK(PEG4-(γ-Glu)-(10-(4-carboxyphenoxy)decanoyl))GGPSSGAPPPS-NH2) [Example 461] | 0.247 | – | 2.76 | > 10100 | – |
| YXEGTXTSDYXIXLDXQAQXXFIKXLIKGGPSSGAPPPS (Y-Aib-EGT-αMeF(2F)-TSDY-Aib-I-αMeL-LD-Orn-QAQ-Aib-Orn-FIK((2-[2-(2-Amino-ethoxy)-ethoxy]-acetyl)2-(γ-Glu)--C10_4CP)-αMeY-LIK((2-[2-(2-Amino-ethoxy)-ethoxy]-acetyl)2-(γ-Glu)--C10_4CP)GGPSSGAPPPS-NH2) [Example 492] | 0.371 | 88.7 | 4.31 | > 9950 | 104 |
| YXEGTXTSDXXIXLDXQAQXXFIKXLIKGGPSSGAPPPS (Y-Aib-EGT-αMeF(2F)-TSD-4Pal-Aib-I-αMeL-LD-Orn-QAQ-Aib-Orn-FIK(Aoc-(2-[2-(2-Amino-ethoxy)-ethoxy]-acetyl)-(γ-Glu)-(10-(4-carboxyphenoxy)decanoyl))-αMeY-LIK(Aoc-(2-[2-(2-Amino-ethoxy)-ethoxy]-acetyl)-(γ-Glu)-(10-(4-carboxyphenoxy)decanoyl))GGPSSGAPPPS-NH2) [Example 456] | 0.878 | – | 14.7 | > 9950 | – |
| YXEGTXTSDXXIXLDXQAQXXFIKXLIKGGPSSGAPPPS (Y-Aib-EGT-αMeF(2F)-TSD-4Pal-Aib-I-αMeL-LD-Orn-QAQ-Aib-Orn-FIK((2-[2-(2-Amino-ethoxy)-ethoxy]-acetyl)2-(γ-Glu)2-CO-(CH2)12-CO2H)-αMeY-LIK((2-[2-(2-Amino-ethoxy)-ethoxy]-acetyl)2-(γ-Glu)2-CO-(CH2)12-CO2H)GGPSSGAPPPS-NH2) [Example 474] | 0.156 | – | 1.1 | > 9950 | – |
| YXEGTXTSDXXIXLDXQAQXXFIKXLIKGGPSSGAPPPS (Y-Aib-EGT-αMeF(2F)-TSD-4Pal-Aib-I-αMeL-LD-Orn-QAQ-Aib-Orn-FIK((2-[2-(2-Amino-ethoxy)-ethoxy]-acetyl)-(γ-Glu)-(2-[2-(2-Amino-ethoxy)-ethoxy]-acetyl)-(γ-Glu)-CO-(CH2)12-CO2H)-αMeY-LIK((2-[2-(2-Amino-ethoxy)-ethoxy]-acetyl)-(γ-Glu)-(2-[2-(2-Amino-ethoxy)-ethoxy]-acetyl)-(γ-Glu)-CO-(CH2)12-CO2H)GGPSSGAPPPS-NH2) [Example 484] | 0.453 | – | 3.66 | > 9950 | – |
| YXEGTXTSDXXIXLDXQAQXXFIKXLIKGGPSSGAPPPS (Y-Aib-EGT-αMeF(2F)-TSD-4Pal-Aib-I-αMeL-LD-Orn-QAQ-Aib-Orn-FIK(PEG5-(γ-Glu)-CO-(CH2)12-CO2H)-αMeY-LIK(PEG5-(γ-Glu)-CO-(CH2)12-CO2H)GGPSSGAPPPS-NH2) [Example 467] | 0.35 | – | 2.87 | > 10100 | – |
| YXEGTXTSDXXIXLDXQAQXXFIKXLIKGGPSSGAPPPS (Y-Aib-EGT-αMeF(2F)-TSD-4Pal-Aib-I-αMeL-LD-Orn-QAQ-Aib-Orn-FIK(PEG6-(γ-Glu)-CO-(CH2)12-CO2H)-αMeY-LIK(PEG6-(γ-Glu)-CO-(CH2)12-CO2H)GGPSSGAPPPS-NH2) [Example 466] | 0.314 | – | 3.32 | > 10100 | – |
| YXEGTXTSDYXIXLDXIAQXXFIKXLIKGGPSSGAPPPS (Y-Aib-EGT-αMeF(2F)-TSDY-Aib-I-αMeL-LD-Orn-IAQ-Aib-Orn-FIK((2-[2-(2-Amino-ethoxy)-ethoxy]-acetyl)3-(γ-Glu)-CO-(CH2)12-CO2H)-αMeY-LIK((2-[2-(2-Amino-ethoxy)-ethoxy]-acetyl)3-(γ-Glu)-CO-(CH2)12-CO2H)GGPSSGAPPPS-NH2) [Example 478] | 0.517 | – | 6.16 | > 9950 | 108 |
